# Paper PMC12689202
# Biological target: C3b (biotinylated) (human) (UniProt P01024)
# Assay: BLI; Octet RH384 (Sartorius); biotinylated C3b immobilized onto streptavidin biosensors; mini-CR1, FH or FHL-1 in the fluid phase
row,Kd [nM],Substance
1,21,"mini-CR1 (soluble fragment of complement receptor 1, complement control proteins 8-10) (domain or fragment)"
2,583,factor H (from UniProt P08603 19-1231) (natural protein)
3,1170,factor H-like protein 1 (from UniProt P08603-2 19-449) (natural protein)
